Laboratory results: patent US20170274038A1

Biological target: angiotensin AT1 receptor (on human umbilical vein endothelial cells) (human) (UniProt P30556)
Assay: cell-based or functional assay

Chain of UniProt P30556 (P30556 whole entry): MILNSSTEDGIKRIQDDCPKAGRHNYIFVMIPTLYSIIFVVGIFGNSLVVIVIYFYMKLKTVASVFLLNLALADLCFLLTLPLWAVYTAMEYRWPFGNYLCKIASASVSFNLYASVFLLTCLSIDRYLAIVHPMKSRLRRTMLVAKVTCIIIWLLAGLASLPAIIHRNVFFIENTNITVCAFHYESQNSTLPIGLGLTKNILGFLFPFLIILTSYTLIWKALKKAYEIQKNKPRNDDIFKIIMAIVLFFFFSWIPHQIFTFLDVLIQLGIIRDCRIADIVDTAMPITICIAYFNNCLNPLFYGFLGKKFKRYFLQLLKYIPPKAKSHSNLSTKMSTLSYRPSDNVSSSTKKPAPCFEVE

- release of PGE2 and PGI2 from HUVEC (effective concentration of DAA-I): 100 pM
Substance: des-aspartate-angiotensin I (from UniProt P01019 26-34) (peptide)
